Where two headings read alike, the source gives them in different places.
T1: human FcγRIIA (R131) (human, UniProt P12318 34-218, limits assumed)
T1 construct: Recombinant His-tagged protein
T1 sequence (looked up): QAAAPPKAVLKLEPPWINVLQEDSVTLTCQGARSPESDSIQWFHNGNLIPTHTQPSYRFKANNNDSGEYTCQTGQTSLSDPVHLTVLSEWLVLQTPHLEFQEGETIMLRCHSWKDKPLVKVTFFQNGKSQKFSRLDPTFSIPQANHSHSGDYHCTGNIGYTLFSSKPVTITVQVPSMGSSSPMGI

T2: human FcγRIIA (H131) (human, UniProt P12318 34-218, limits assumed)
T2 construct: Recombinant His-tagged protein
T2 sequence (looked up): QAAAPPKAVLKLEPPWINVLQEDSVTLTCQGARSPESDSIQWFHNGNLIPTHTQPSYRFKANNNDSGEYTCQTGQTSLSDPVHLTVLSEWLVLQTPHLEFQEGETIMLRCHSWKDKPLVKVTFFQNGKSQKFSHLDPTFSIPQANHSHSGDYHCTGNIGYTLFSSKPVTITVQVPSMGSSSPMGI

T3: human FcγRIIB (human, UniProt P31994 43-217, limits assumed)
T3 construct: Recombinant His-tagged protein; also called FcγRIIB (human)
T3 sequence (looked up): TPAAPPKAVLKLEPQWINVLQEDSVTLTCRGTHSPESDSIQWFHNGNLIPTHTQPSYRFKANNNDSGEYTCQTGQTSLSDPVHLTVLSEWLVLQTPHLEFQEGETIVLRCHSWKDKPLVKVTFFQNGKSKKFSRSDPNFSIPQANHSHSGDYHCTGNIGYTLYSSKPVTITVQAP

T4: mouse FcγRI (mouse, UniProt P26151 25-297)
T4 construct: Recombinant His-tagged protein
T4 sequence (looked up): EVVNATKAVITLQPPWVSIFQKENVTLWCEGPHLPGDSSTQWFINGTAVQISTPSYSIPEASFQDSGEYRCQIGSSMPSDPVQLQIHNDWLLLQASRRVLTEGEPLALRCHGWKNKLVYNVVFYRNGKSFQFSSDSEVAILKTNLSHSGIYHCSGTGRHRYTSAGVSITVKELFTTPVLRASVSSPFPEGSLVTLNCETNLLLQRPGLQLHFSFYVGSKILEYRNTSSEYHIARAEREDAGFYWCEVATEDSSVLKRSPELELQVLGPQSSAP

T5: mouse FcγRIIB (mouse, UniProt P08101 30-210, limits assumed)
T5 construct: Recombinant His-tagged protein
T5 sequence (looked up): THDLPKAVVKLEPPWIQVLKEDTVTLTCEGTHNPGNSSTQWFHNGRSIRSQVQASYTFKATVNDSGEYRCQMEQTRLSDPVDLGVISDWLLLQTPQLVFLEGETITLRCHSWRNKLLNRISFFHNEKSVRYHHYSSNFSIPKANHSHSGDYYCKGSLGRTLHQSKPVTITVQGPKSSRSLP

T6: mouse FcγRIII (mouse, UniProt P08508 31-215)
T6 construct: Recombinant His-tagged protein
T6 sequence (looked up): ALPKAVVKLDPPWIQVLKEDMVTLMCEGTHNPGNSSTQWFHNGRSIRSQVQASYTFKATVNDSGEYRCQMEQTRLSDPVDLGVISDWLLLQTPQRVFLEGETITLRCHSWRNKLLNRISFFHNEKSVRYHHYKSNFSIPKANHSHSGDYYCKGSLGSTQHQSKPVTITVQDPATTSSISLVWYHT

T7: mouse FcγRIV (mouse, UniProt A0A0B4J1G0 21-203)
T7 construct: Recombinant His-tagged protein
T7 sequence: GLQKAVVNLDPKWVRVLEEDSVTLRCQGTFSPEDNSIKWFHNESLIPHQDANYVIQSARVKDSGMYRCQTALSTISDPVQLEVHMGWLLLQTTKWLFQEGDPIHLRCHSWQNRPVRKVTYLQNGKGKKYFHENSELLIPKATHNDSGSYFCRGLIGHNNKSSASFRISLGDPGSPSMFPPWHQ

B1: 3F6-hIgG1HEK-G2F (antibody)
heavy: not shown
light: DIVLTQSPDSLAVSLGERATINCRASESVEYSGASLMQWYQHKPGQPPKLLIYAASNRESGVPDRFSGSGSGTDFTLTISPVQAEDVAMYFCQQSRKVPSTFGGGTKLEIKRTVAAPSVFIFPPSDEQLKSGTASVVCLLNNFYPREAKVQWKVDNALQSGNSQESVTEQDSKDSTYSLSSTLTLSKADYEKHKVYACEVTHQGLSSPVTKSFNRGEC
modifications: Asn297 N-glycan remodelled chemoenzymatically to homogeneous G2F
notes: See m5; also called 3F6-hIgGHEK-G2F
B2: 3F6-hIgG1HEK-KA (antibody, name in EU numbering)
heavy: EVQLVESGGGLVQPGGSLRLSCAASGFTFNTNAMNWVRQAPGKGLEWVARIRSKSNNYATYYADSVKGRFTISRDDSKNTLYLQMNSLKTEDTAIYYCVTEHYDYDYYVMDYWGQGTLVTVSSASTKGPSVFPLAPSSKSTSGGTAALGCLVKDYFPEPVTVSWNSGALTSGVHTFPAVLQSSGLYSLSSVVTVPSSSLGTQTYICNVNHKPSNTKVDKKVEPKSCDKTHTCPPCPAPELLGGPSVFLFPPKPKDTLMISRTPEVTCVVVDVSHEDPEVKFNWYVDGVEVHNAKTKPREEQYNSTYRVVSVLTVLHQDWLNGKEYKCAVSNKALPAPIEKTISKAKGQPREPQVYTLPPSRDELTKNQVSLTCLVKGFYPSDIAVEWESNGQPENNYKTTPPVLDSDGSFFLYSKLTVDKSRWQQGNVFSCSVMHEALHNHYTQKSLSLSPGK
light: DIVLTQSPDSLAVSLGERATINCRASESVEYSGASLMQWYQHKPGQPPKLLIYAASNRESGVPDRFSGSGSGTDFTLTISPVQAEDVAMYFCQQSRKVPSTFGGGTKLEIKRTVAAPSVFIFPPSDEQLKSGTASVVCLLNNFYPREAKVQWKVDNALQSGNSQESVTEQDSKDSTYSLSSTLTLSKADYEKHKVYACEVTHQGLSSPVTKSFNRGEC
notes: also called KA variant
B3: 3F6-hIgG1HEK-afu (antibody)
heavy: not shown
light: DIVLTQSPDSLAVSLGERATINCRASESVEYSGASLMQWYQHKPGQPPKLLIYAASNRESGVPDRFSGSGSGTDFTLTISPVQAEDVAMYFCQQSRKVPSTFGGGTKLEIKRTVAAPSVFIFPPSDEQLKSGTASVVCLLNNFYPREAKVQWKVDNALQSGNSQESVTEQDSKDSTYSLSSTLTLSKADYEKHKVYACEVTHQGLSSPVTKSFNRGEC
modifications: Asn297 N-glycans low in fucose and galactose (HEK-293F cells grown with kifunensine)
notes: See m5; also called afucosylated 3F6-hIgG1HEK
B4: 3F6-hIgG1CHO-Gal (antibody)
heavy: not shown
light: DIVLTQSPDSLAVSLGERATINCRASESVEYSGASLMQWYQHKPGQPPKLLIYAASNRESGVPDRFSGSGSGTDFTLTISPVQAEDVAMYFCQQSRKVPSTFGGGTKLEIKRTVAAPSVFIFPPSDEQLKSGTASVVCLLNNFYPREAKVQWKVDNALQSGNSQESVTEQDSKDSTYSLSSTLTLSKADYEKHKVYACEVTHQGLSSPVTKSFNRGEC
modifications: Asn297 N-glycans enzymatically galactosylated (β1,4GalT)
notes: 3F6-hIgG1CHO after enzymatic galactosylation; also called 3F6-IgG1CHO-Gal
B5: 3F6-hIgG1CHO-deSia (antibody)
heavy: not shown
light: DIVLTQSPDSLAVSLGERATINCRASESVEYSGASLMQWYQHKPGQPPKLLIYAASNRESGVPDRFSGSGSGTDFTLTISPVQAEDVAMYFCQQSRKVPSTFGGGTKLEIKRTVAAPSVFIFPPSDEQLKSGTASVVCLLNNFYPREAKVQWKVDNALQSGNSQESVTEQDSKDSTYSLSSTLTLSKADYEKHKVYACEVTHQGLSSPVTKSFNRGEC
modifications: Asn297 N-glycans de-sialylated with neuraminidase
notes: 3F6-hIgG1CHO after neuraminidase
B6: 3F6-hIgG1CHO-G2F (antibody)
heavy: not shown
light: DIVLTQSPDSLAVSLGERATINCRASESVEYSGASLMQWYQHKPGQPPKLLIYAASNRESGVPDRFSGSGSGTDFTLTISPVQAEDVAMYFCQQSRKVPSTFGGGTKLEIKRTVAAPSVFIFPPSDEQLKSGTASVVCLLNNFYPREAKVQWKVDNALQSGNSQESVTEQDSKDSTYSLSSTLTLSKADYEKHKVYACEVTHQGLSSPVTKSFNRGEC
modifications: Asn297 N-glycan remodelled chemoenzymatically to homogeneous G2F
notes: Endo-S2 deglycosylation and EndoS2-D184M transfer of G2F glycan; also called 3F6-hIgGCHO-G2F

How the values were obtained:
human C1q [1] = biological target: T8, human C1q (human, UniProt P02745 23-245; P02746 28-253; P02747 29-245); assay: ELISA, human C1q-coated plate
T8 construct: Purified human C1q (CompTech); also called hc1q; hC1q
T8 sequence (P02745 23-245 limits assumed, chain 1 of 3): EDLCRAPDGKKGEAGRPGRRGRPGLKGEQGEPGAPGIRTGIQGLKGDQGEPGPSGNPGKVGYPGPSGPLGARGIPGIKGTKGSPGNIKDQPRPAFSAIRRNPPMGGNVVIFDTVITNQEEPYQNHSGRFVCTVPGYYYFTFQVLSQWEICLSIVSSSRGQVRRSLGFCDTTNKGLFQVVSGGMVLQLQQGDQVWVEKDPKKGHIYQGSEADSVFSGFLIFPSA
T8 sequence (P02746 28-253 limits assumed, chain 2 of 3): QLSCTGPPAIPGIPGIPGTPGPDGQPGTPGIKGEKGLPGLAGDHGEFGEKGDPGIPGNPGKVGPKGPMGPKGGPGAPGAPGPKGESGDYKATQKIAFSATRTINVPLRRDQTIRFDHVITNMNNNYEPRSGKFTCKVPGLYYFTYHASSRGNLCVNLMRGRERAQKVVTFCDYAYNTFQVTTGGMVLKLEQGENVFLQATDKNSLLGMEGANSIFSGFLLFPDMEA
T8 sequence (P02747 29-245 limits assumed, chain 3 of 3): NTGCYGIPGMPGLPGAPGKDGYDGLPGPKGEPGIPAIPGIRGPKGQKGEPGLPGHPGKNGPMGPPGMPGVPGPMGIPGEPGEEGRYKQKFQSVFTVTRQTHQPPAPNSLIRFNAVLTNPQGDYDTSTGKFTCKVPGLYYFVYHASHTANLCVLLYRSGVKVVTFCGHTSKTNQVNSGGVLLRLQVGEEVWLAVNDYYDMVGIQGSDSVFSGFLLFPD

human C1q [2] = biological target: T8, human C1q; assay: ELISA, human C1q-coated plate; remark: listed apart in the source
human FcγRIA = biological target: T9, human FcγRIA (human, UniProt P12314 16-288, limits assumed); assay: ELISA, His-tagged FcγR captured by anti-His antibody
T9 construct: Recombinant His-tagged protein
T9 sequence (P12314 16-288 limits assumed): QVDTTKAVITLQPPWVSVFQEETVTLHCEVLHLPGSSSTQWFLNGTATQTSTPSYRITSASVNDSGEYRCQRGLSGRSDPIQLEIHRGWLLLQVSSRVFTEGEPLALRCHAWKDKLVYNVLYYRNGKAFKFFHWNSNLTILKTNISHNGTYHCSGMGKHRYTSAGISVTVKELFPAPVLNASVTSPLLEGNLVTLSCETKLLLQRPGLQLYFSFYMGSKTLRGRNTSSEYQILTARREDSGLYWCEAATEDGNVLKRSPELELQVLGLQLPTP

human FcγRIIA (R131) = biological target: T1, human FcγRIIA (R131); assay: as above
human FcγRIIA (H131) = biological target: T2, human FcγRIIA (H131); assay: as above
human FcγRIIB = biological target: T3, human FcγRIIB; assay: as above
human FcγRIIIA (V158) = biological target: T10, human FcγRIIIA (V158) (human, UniProt P08637 17-208); assay: as above
T10 construct: Recombinant His-tagged protein
T10 sequence (P08637 17-208 F176V limits assumed): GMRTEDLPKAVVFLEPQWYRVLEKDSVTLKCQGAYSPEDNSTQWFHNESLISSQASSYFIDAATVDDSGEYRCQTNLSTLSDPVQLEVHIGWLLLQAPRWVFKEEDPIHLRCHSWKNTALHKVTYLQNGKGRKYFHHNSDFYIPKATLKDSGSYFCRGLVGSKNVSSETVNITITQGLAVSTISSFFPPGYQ

human FcγRIIIA (F158) = biological target: T11, human FcγRIIIA (F158) (human, UniProt P08637 17-208); assay: as above
T11 construct: Recombinant His-tagged protein
T11 sequence (P08637 17-208 limits assumed): as the sequence (P08637 17-208 F176V limits assumed) above, with V160F counted along it

mouse FcγRI = biological target: T4, mouse FcγRI; assay: as above
mouse FcγRIIB = biological target: T5, mouse FcγRIIB; assay: as above
mouse FcγRIII = biological target: T6, mouse FcγRIII; assay: as above
mouse FcγRIV = biological target: T7, mouse FcγRIV; assay: as above
mouse C1q = biological target: T12, mouse C1q (mouse, UniProt P98086 23-245; P14106 26-253; Q02105 30-246); assay: ELISA, plate coated with BALB/c mouse serum (mouse C1q)
T12 construct: Plates were coated with BALB/c mouse serum as the source of mouse C1q; also called mc1q
T12 sequence (P98086 23-245 limits assumed, chain 1 of 3): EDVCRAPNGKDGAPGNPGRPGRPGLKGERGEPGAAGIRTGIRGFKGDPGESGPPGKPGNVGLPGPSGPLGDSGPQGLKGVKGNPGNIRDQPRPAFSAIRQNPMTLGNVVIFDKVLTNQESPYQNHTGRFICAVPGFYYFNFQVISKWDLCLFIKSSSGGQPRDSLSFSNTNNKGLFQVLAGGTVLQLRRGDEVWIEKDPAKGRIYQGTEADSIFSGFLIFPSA
T12 sequence (P14106 26-253 limits assumed, chain 2 of 3): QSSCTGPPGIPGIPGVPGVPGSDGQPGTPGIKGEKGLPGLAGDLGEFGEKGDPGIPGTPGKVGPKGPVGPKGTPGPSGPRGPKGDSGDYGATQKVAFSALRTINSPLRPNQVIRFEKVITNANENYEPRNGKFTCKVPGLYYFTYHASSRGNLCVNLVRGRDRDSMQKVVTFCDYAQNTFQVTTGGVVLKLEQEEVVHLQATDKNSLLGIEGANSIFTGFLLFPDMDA
T12 sequence (Q02105 30-246 limits assumed, chain 3 of 3): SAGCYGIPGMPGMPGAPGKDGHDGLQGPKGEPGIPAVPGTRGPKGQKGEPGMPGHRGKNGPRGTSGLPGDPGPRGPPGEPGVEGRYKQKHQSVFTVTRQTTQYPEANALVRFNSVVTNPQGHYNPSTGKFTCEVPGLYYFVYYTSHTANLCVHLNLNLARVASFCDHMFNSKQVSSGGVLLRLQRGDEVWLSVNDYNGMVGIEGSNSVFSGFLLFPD

| Binder | Ka (human C1q [1]) | Ka (human C1q [2]) | Ka (human FcγRIA) | Ka (human FcγRIIA (R131)) | Ka (human FcγRIIA (H131)) | Ka (human FcγRIIB) | Ka (human FcγRIIIA (V158)) | Ka (human FcγRIIIA (F158)) | Ka (mouse FcγRI) | Ka (mouse FcγRIIB) | Ka (mouse FcγRIII) | Ka (mouse FcγRIV) | Ka (mouse C1q) |
| --- | --- | --- | --- | --- | --- | --- | --- | --- | --- | --- | --- | --- | --- |
| B1 | 5.5e+07 M⁻¹ | – | – | – | – | – | – | – | – | – | – | – | – |
| B2 | – | 1.37e+06 M⁻¹ | 7.86e+08 M⁻¹ | 1.81e+06 M⁻¹ | 1.23e+06 M⁻¹ | 1.18e+06 M⁻¹ | 1.4e+07 M⁻¹ | 1.51e+06 M⁻¹ | 3.97e+08 M⁻¹ | 3.35e+06 M⁻¹ | 2.96e+06 M⁻¹ | 2.66e+08 M⁻¹ | 1.34e+06 M⁻¹ |
| B3 | – | 5.97e+06 M⁻¹ | 5.83e+08 M⁻¹ | 1.82e+06 M⁻¹ | 1.51e+06 M⁻¹ | 179000 M⁻¹ | 5.63e+07 M⁻¹ | 9.2e+06 M⁻¹ | 9.2e+07 M⁻¹ | 1.62e+06 M⁻¹ | 2.3e+06 M⁻¹ | 3.19e+08 M⁻¹ | 2.79e+06 M⁻¹ |
| B4 | 2.17e+07 M⁻¹ | – | – | – | – | – | – | – | – | – | – | – | – |
| B5 | 5.5e+06 M⁻¹ | – | – | – | – | – | – | – | – | – | – | – | – |
| B6 | 5.11e+07 M⁻¹ | – | – | – | – | – | – | – | – | – | – | – | – |
